Results taken from publication PMC11472156, “Synergistic regulation of fusion pore opening and dilation by SNARE and synaptotagmin-1” (Journal of Molecular Cell Biology, 2024).

Biological target: the molecule itself
Test: single-molecule fluorescence photobleaching step counting; 40 pM Cy5-labeled C2AB incubated 30 min at room temperature on a DiI-labeled supported lipid bilayer (15% DOPS, with or without 1% PIP2), no Ca2+; unbound protein removed; photobleaching steps per fluorescent spot fitted to a Poisson distribution and corrected for unlabeled fragments; printed numbers are with 1% PIP2

B1: Syt1 C2B domain-containing C2AB fragment, C2AB (A418C), Cy5-labeled (domain or fragment)
chain: KLGKLQYSLDYDFQNNQLLVGIIQAAELPALDMGGTSDPYVKVFLLPDKKKKFETKVHRKTLNPVFNEQFTFKVPYSELGGKTLVMAVYDFDRFSKHDIIGEFKVPMNTVDFGHVTEEWRDLQSAEKEEQEKLGDICFSLRYVPTAGKLTVVILEAKNLKKMDVGGLSDPYVKIHLMQNGKRLKKKKTTIKKNTLNPYYNESFSFEVPFEQIQKVQVVVTVLDYDKIGKNDAIGKVFVGYNSTGAELRHWSDMLANPRRPIAQWHTLQVEEEVDAMLCVKK
modifications: Sulfo-Cy5 maleimide label (labeling efficiency 34.5%-42%)
stoichiometry N: 6.85 molecules

B2: C2AB_F349A (A418C), Cy5-labeled (domain or fragment)
chain: KLGKLQYSLDYDFQNNQLLVGIIQAAELPALDMGGTSDPYVKVFLLPDKKKKFETKVHRKTLNPVFNEQFTFKVPYSELGGKTLVMAVYDFDRFSKHDIIGEFKVPMNTVDFGHVTEEWRDLQSAEKEEQEKLGDICFSLRYVPTAGKLTVVILEAKNLKKMDVGGLSDPYVKIHLMQNGKRLKKKKTTIKKNTLNPYYNESFSFEVPAEQIQKVQVVVTVLDYDKIGKNDAIGKVFVGYNSTGAELRHWSDMLANPRRPIAQWHTLQVEEEVDAMLCVKK
modifications: Sulfo-Cy5 maleimide label (labeling efficiency 34.5%-42%)
stoichiometry N: 3.03 molecules
